The values that follow come from patent US20140234868A1, “USE FOR GLYCOLIPOPROTEIN GINTONIN, ISOLATED AND IDENTIFIED FROM GINSENG, AS A NATURAL MEDICAL-PLANT DERIVED LIGAND” (KONKUK UNIVERSITY INDUSTRIAL COOPERATION CORP., priority 2011, published 2014).

The subject of experiment [1] is GPR87, GPR40, GPR41, GPR43 and GPR120. Description: Intracellular free Ca2+ in B103 cells expressing other orphan GPCRs and fatty acid receptors. It counts as cell-based. Conditions: B103 cells expressing the other receptors (GPR87, GPR40, GPR41, GPR43, GPR120). The text has this: Optionally, the method may further comprise (8) pre-treating the suspended B103 cells with LPA receptor antagonists and LPA receptor-mediated signaling-relevant drugs (e.g., pertussis toxin, PLC inhibitors, IP3 receptor antagonists) to examine whether the cells decrease or increase in intracellular free Ca^2+, prior to treatment with gintonin; (9) performing site-directed mutagenesis to identify an amino acid of LPA receptors with which gintonin interact to activate the LPA; and (10) examining whether gintonin activates orphan GPCRs including GPR35 and GPR87, and free fatty acid GPCRs including GPR40, GPR41, GPR43 and GPR120, all known for activation by LPA.
In addition, GPR35 (Oka et al., Biochem Biophys Res Commun. 395, 232-237, 2010) and GPR87 (Tabata et al., Biochem Biophys Res Commun. 363, 861-866, 2007), both known as orphan GPCRs reacting with LPA, and GPR40, GPR41, GPR43 and GPR120 (Hirasawa et al., Biol Pharm Bull. 31, 1847-1851, 2008), all known as fatty acid receptors reacting with free fatty acids, were expressed in B103 cells when gintonin activity was tested.

The target in experiment [2] is T1, mutant W4.64A LPA3 receptor (Homo sapiens, UniProt Q9UBY5, W167A).
T1 construct: expressed in transfected cells; host or cells: B103 rat neuroblastoma cells
T1 sequence (Q9UBY5 1-353 W167A): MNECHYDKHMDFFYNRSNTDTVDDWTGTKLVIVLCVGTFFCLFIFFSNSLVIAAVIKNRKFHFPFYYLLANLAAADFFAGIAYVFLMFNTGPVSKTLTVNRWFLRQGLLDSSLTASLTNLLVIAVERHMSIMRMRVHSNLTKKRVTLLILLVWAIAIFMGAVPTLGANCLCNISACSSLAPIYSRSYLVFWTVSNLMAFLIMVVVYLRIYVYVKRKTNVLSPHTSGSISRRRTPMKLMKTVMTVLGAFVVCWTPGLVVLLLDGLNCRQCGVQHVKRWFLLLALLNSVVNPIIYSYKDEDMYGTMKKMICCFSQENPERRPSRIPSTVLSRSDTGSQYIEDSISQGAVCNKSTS
Description: Intracellular Ca2+ in B103 cells with mutant W4.64A LPA3 receptor. It counts as cell-based. Conditions: W4.64A LPA3 receptor-transfected B103 cells. An excerpt: That is, LPA receptors have specific amino acid residues, known as binding sites, which are responsible for interaction with LPA, and the binding of LPA to the specific amino acids starts to exert the function. This Example was configured to examine a change in the gintonin-induced intracellular calcium increase through LPA receptor activation in LPA3 receptor-expressing cells when specific amino acids of the LPA binding site in LPA receptors were mutated.
To this end, a mutant LPA receptor in which Arg3.28, known as a common LPA binding site of LPA1-LPA3 receptors, was mutated as Arg3.28Ala (that is, Arg is substituted by Ala; R3.28A) or Trp4.64, known as an LPA-binding site of LPA3 receptor was mutated as Trp4.64Ala (that is, Tip is substituted by Ala; W4.64A) (Valentine et al., J. Biol. Chem. 283, 12175-12187, 2008) was transfected to B103 cells which were then tested for the action of gintonin, in comparison with cells transfected with the wild-type. […] From the result, it is henceforth understood that the gintonin-triggered LPA receptor activation is achieved by interaction with the LPA binding sites of LPA receptors and that gintonin occupies the LPA binding sites to activate LPA receptors.

The next experiment relates to HUVECs. Description: HUVEC migration, Boyden chamber. It counts as cell-based, human. As to conditions: 70~80 min, 37° C. How it is done: To measure the effect of gintonin on cell migration, a Boyden chamber (Neuro Probe Inc., Gaithersburg, Md., USA) assay was employed (Kim et al. Biol Pharm Bull 30: 1674-1679, 2007; Lee et al. Am J Physiol Cell Physiol 278:C612-C618, 2000).
In the Boyden chamber (48 wells) of two compartments separated by a collagen-coated polycarbonate microporous membrane (8-μm pores), gintonin in M199 (0.1% BSA contained) was placed onto the wells of lower compartment while a HUVEC suspension was added to the wells of the upper compartment (5×10^4 cells/well). During incubation at 37° C. for 70˜80 min, the cells were allowed to migrate through the membrane into the lower compartment. Then, the chamber was disassembled, and the cells on the membrane was fixed and stained with Diff Quik (Sysmex, Kobe, Japan), and mounted on a slide.

The test system of a further experiment is mice. Description: Busulfan-caused diarrhea and mucositis in mice. In kind it is in vivo, mouse. As to conditions: for Diarrhea (cases / mice) / Mucositis (cases / mice): gintonin 100 mg/kg oral 3 days before, observed 10 days. How it is done: In this Example, an examination was made of the inhibitory activity of gintonin against chemotherapy-induced diarrhea and mucositis. For this, gintonin-treated mice were administered with busulfan, and observed for diarrhea and mucostitis.
Briefly, mice were orally administered at a dose of 100 mg/kg with gintonin 3 days before intraperitoneal injection with busulfan (40 mg/kg). For the control, physiological saline was used, instead of gintonin.

Experiment [3] has as its system mouse EAT (Ehrlich Ascites Tumor). As to conditions: mouse EAT cells; PLC-coupled pathway; cited from earlier work.
Setting [4] is: busulfan 40 mg/kg i.p., gintonin 100 mg/kg oral.
[5] abbreviates: busulfan 40 mg/kg i.p., listed as Gintonin + Busulfan.

B1: gintonin: ginseng-derived glycolipoprotein; structural protein of ginseng major latex-like protein (MLP151) and ribonuclease-like storage proteins; crude gintonin used in tests (protein)
chain 1: MGLTGKLICQTGIKSDGDVFHELFGTRPHHVPNITPANIQGCDLHEGEFGKVGSVVIWNYSIDGNAMIAKEEIVAIDEEDKSVTFKVVEGHLFEEFKSIVFSVHVDTKGEDNLVTWSIDYEKLNESVKDPTSYLDFLLSVTRDIEAHHLPK
chain 2: RSDYPWAMFALRLQWPAGFCEVNNACDTKSLLNTFTIHGLYPYNAKGTPALYCDGTAFDVNSVSDFLAEMHLAWPSHETNTEDIQFWEHEWKKHGRCSEALLKQTDYFRTALAFRKAFDIVGLLNQEGIYPNNDLYRPKMIKEAIKKHLNAVPEIDFTKNENSEYVLTDINVCVNQQATRFVDCPTDDATDDYRLKFVRLPSKMKFADPRTNSII
On to B1, for which the “increase of intracellular calcium level” value in experiment [1] is “not act on the other receptors”. In addition, in experiment [2], the “gintonin-induced intracellular calcium increase vs wild-type” value is listed as “greatly reduced”. Also, the cell migration result in the experiment on HUVECs is “promoted cell migration in a concentration-dependent manner”. In addition, in the experiment on mice (setting [4]), the diarrhea morbidity rate is 20% and the perianal mucositis morbidity stood at 13.3%. Further, in the experiment with mice (busulfan 40 mg/kg i.p.), the “Diarrhea (cases / mice)” value is 3 and the “Mucositis (cases / mice)” value was found to be 2. Moreover, in the experiment on mice (setting [5]), the “Diarrhea (cases / mice)” value was 3/15 and the “Mucositis (cases / mice)” value is reported as 2/15. In addition, in the experiment on mice (gintonin 100 mg/kg oral), the “inhibition of busulfan-caused perianal mucositis” value is recorded as 33.4% and the “reduction of busulfan-caused diarrhea” value is recorded as “more than 30%”. Moreover, in experiment [3], the “transient increase in cytoplasmic free Ca2+ level” value is “induces a transient increase in cytoplasmic free Ca^2+ level”.
